Experiment: yeast display, Sf9 membrane polyspecificity reagent, FACS + sequencing; frameworks hold sequencing errors
Summary of the method: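 Polyreactivity labels are assigned by the sorting gate from which each nanobody was recovered. The gates were low and high (top ~1%), set on anti-HA fluorescence for expression and streptavidin fluorescence for reagent binding. Before sorting, galactose-induced (36–48 hours) yeast display cells were stained for 1 hour at 4 °C with 10% biotinylated, detergent-solubilized Sf9 membrane reagent.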

Sequence	polyreactivity (PSR sort gate)
QVQLVESGGGLVQAGGSLRLSCAAYGRTFYGYAMGWYRQAPGKEREFFAAITWRGGSTYYADSVKGRFSISRDNAKNNVFLQMNSLKPEDTAVYYCAADYRVYTRYGLRKFDYWGQCTQVTVSS	high polyreactivity
QVQLVESGGGLVQAGGSLRLSCAAYGRTIRRNAMGWYRQAPGKERELVAGISGSGTITYADSVKGRFTIARDNAKNTVYLQMNSLKPEDTAVYYCAARRKSFYTFYYWGQGTQVTVSS	high polyreactivity
QVQLVESGGGLVQAGGSLRLSCAAYGRYYSRNPMGWYRQAPGKERELVAAITWRGGSTYYADSVKGRFTISRDNAKNTVFLQMISLKPEDTAVYYCNRDYRQYGYAYSGRYYWGHGTQVTVSS	high polyreactivity
QVQLVESGGGLVQAGGSLRLSCAAYGSFFPYNAMGWYRQAPGKERELVAGITRRGGSTYYADSVKGRFTISRDNAKNTVYLQINSLKPVDTAVYYCGTEVTYPWHVDEGDYWGQGTQVTVSS	low polyreactivity
QVQLVESGGGLVQAGGSLRLSCAAYGSIFDANAMGWYRQAPGKEREFLAAINCTGGSTYYAESVKGRFTISRDYAKNTVYLQMNILKPEDTAGYYCAAEWWYQNNPEIYYYWGQGIQVTVSS	high polyreactivity
QVQLVESGGGLVQAGGSLRLSCAAYGSIFETYVMGWYRQAPGKERELVAAINSGGSTNYADSVKGRFTISRDNAKNTVYLQMNSLKPEDTAVYYCNADWFTPAQPWYRYFIRYDYWGQGTQVTVSS	low polyreactivity
QVQLVESGGGLVQAGGSLRLSCAAYGSIFGGNAMGWYRQAPGKERELVARITDRGGSTDYADSVKGRFTISRDNAKNTVFLHMNSLKREDTAVYYCAKRGDRYEQRPRDYWGQGTQVTVSS	low polyreactivity
QVQLVESGGGLVQAGGSLRLSCAAYGSIFGSYCMGWYRQAPGKERELVAAIRVSGGSTYYADSVKGRFTISRDNAKNTVYLQMNSLKPEDTAVYYCAARARSTPRKYYYTRGYWGQGSQVTVSS	high polyreactivity
QVQLVESGGGLVQAGGSLRLSCAAYGSIFVWYDMGWYRQAPGKERELVATISLSGVSTYYADSVKGRFTISRDNAKNTVYLQMNCLKPEDSAVYYCAADFVEQGEDDYWGQGTQLTVSS	low polyreactivity
QVQLVESGGGLVQAGGSLRLSCAAYGSTFPGYAMGWYRQAPGKERELVAAISASGGSTYYADSVKGRFTISRDNAKNTVYLQMISLIPEDTAVYFCAKVLSRGACADDYWGQGTQVTVSS	low polyreactivity
QVQLVESGGGLVQAGGSLRLSCAAYGSTFYAYAMGWYRQAPGKERELVAAITYRDARTYYADSVKGRFTISRDNAKNTVYLQMISLKPEDTAVYYCARKTGFTVRRYDYWGQGTQVTVSS	high polyreactivity
QVQLVESGGGLVQAGGSLRLSCAAYGSTLAGYAMGWYRQAPGKERELVAAIDWTGGSTTYADSVKGRFTISRDNAKNTVYLQMNSLKPEDTAVYYCNVDLGVNGDYWGQGSQVTVSS	low polyreactivity
QVQLVESGGGLVQAGGSLRLSCAAYGSTLNRNVMGWYRQAPGKERELVAVITYGVGSTYYADSVKGRFTISRDNAKNTVYLQMNSLKPEDTAVYYCNKDPLVFDYWGQGTQVTVSS	low polyreactivity
QVQLVESGGGLVQAGGSLRLSCADSGFIFRYNTMGWYRQAPGKERELVAAITSGDSTYYADSVKGRFTITRDNAKNTVYLQMNSLKPEDTEVYYCAARPYSGRNKYDYWGQGTQVTVSS	high polyreactivity
QVQLVESGGGLVQAGGSLRLSCADSGFIFYDYTMGWYRQAPGKERELVAVISRGGSTYYADSVKGRFTISRDNAKNTVYLQMNSLNPEDSAVYYCAARPRWYTFTRQEYDYWGQGTQVTVSS	high polyreactivity
QVQLVESGGGLVQAGGSLRLSCADSGFIIFCYAMGWYRQAPGKERELVAAITSGGSTYYAYSVKGRFTISRDNAKNTVYLQMNSLKPEDTAVYYCAAVRWYGSKRYGYWGQGTQVTVSS	high polyreactivity
QVQLVESGGGLVQAGGSLRLSCADSGFNFYQYAMGWYRQAPGKERELVAVISGSGSRTYYADSVKGRFTISRDNAKNTVYLQMNSLKPEDTAVYYCAAKGVIISYDTLRYDSWGQGTQVTVSS	high polyreactivity

Source: the nanobody polyreactivity screen of Harvey et al. (2022)
